Test results reported in article PMC5573810 (2017).

Experiments:
Test in all cases: ELISA
[1] = molecular target: gp120-ferritin (gp120-FR) nanoparticle
[2] = molecular target: clade-C (ZM109) V1V2-ferritin nanoparticle (V1V2-FR) (HIV-1 ZM109 (clade C) | )
[3] = molecular target: N332 nanoparticle (1GUT_A_ES-FR)

B1: PGT133 (antibody, V domains shown)
VH: QVHLQESGPGLVTPSETLSLTCTVSNGSVSGRFWSWIRQSPGRGLEWIGYFSDTDRSEYNPSLRSRLTLSVDRSKNQLSLRLKSVTAADSATYYCARAQQGKRIYGIVSFGEFFYYYYMDAWGKGTPVTVSS
VL: LSLAPGATAKIPCGERSRGSRAVQWYQQKPGQAPTLIIYNNQDRPAGVSERFSGNPDVAIGVTATLTISRVEVGDEADYYCHYWDSRSPISWIFGGGTQLTVL
- EC50 [1]: 0.042 µg/mL
- EC50 [2]: 0.26 µg/mL
- EC50 [3]: 0.024 µg/mL

B2: PGT124 (antibody, V domains shown)
VH: QVQLQESGPGLVRPSETLSVTCIVSGGSISNYYWTWIRQSPGKGLEWIGYISDRETTTYNPSLNSRAVISRDTSKNQLSLQLRSVTTADTAIYFCATARRGQRIYGVVSFGEFFYYYYMDVWGKGTAVTVSS
VL: SYVSPLSVALGETARISCGRQALGSRAVQWYQHKPGQAPILLIYNNQDRPSGIPERFSGTPDINFGTTATLTISGVEVGDEADYYCHMWDSRSGFSWSFGGATRLTVL
- EC50 [1]: 0.026 µg/mL
- EC50 [3]: 0.03 µg/mL
